Measured values taken from article PMC2173304.

Biological target: peptide corresponding to the cytoplasmic tail of lysosomal acid phosphatase (LAP) (UniProt P11117)
Test: SPR

UniProt P11117, sequence (P11117 402-423): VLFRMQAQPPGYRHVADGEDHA

Substance: AP2 complex from pig brain, dephosphorylated with calf intestinal alkaline phosphatase
- fold decrease in affinity against untreated AP2: > 4 fold
